The record followed here is paper doi:10.1101/211250 (bioRxiv, 2017).

The chains are these.
B2: FITC-labeled p-1 phosphorylated MCC peptide (peptide)
peptide: HTNET[pS]L
modifications: also: FITC label (position not given here)
B5: FITC-labeled p-3 phosphorylated RPS6KA2 peptide (peptide)
peptide: RLT[pS]TRL
modifications: also: FITC label (position not given here)

Non-standard residues stand in square brackets, D forms with d. No end group written: not given here. pS = N[C@@H](COP(=O)(O)O)C(=O)O

In assay [1] the target is FITC-labeled p-6 phosphorylated TANC1 peptide (human). Briefly: MST.
Assay [2] has as its target FITC-labeled phosphomimetic RPS6KA2 peptide (p-3 Ser to Glu) (human) (UniProt Q15349). Briefly: MST.
Assay [3] deals with FITC-labeled p-3 phosphorylated RPS6KA2 peptide (human). Briefly: MST.
Assay [4] addresses FITC-labeled phosphomimetic TANC1 peptide (p-6 Ser to Glu) (human) (UniProt Q9C0D5). Briefly: MST.
For assay [5], the target named is FITC-labeled p-1 phosphorylated MCC peptide (human). Briefly: MST.
In assay [6] the target is T1, Scribble PDZ1 (human, UniProt Q14160 719-829). Briefly: MST.
T1 sequence (Q14160 719-829): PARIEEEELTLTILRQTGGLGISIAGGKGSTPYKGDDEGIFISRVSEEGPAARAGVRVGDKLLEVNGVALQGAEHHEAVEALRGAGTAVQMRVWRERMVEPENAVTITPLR
The target in assay [7] is T1, Scribble PDZ1. Briefly: ITC. In general terms: Isothermal titration calorimetry measures the heat released or taken up as one component is titrated into another.
For assay [8], the target named is Scribble PDZ1 R762A/A743R (human, UniProt Q14160 719-829, R762A | A743R). Briefly: ITC.
Sequence of Scribble PDZ1 R762A/A743R (Q14160 719-829 A743R/R762A): as the sequence (Q14160 719-829) above, with A25R, R44A counted along it
For assay [9], the target named is Scribble PDZ1 R762A (human, UniProt Q14160 719-829, R762A). Briefly: ITC.
Sequence of Scribble PDZ1 R762A (Q14160 719-829 R762A): as the sequence (Q14160 719-829) above, with R44A counted along it
Assay [10] deals with B2. Briefly: MST.
In assay [11] the target is B5. Briefly: MST.
The target of assay [12] is Scribble PDZ1 K746A (human, UniProt Q14160 719-829, K746A). Briefly: ITC.
Sequence of Scribble PDZ1 K746A (Q14160 719-829 K746A): as the sequence (Q14160 719-829) above, with K28A counted along it
The target in assay [13] is Scribble PDZ1 R801A (human, UniProt Q14160 719-829, R801A). Briefly: ITC.
Sequence of Scribble PDZ1 R801A (Q14160 719-829 R801A): as the sequence (Q14160 719-829) above, with R83A counted along it

Sequence of FITC-labeled phosphomimetic RPS6KA2 peptide (p-3 Ser to Glu) (human) (Q15349 whole entry, looked up, tested part not stated): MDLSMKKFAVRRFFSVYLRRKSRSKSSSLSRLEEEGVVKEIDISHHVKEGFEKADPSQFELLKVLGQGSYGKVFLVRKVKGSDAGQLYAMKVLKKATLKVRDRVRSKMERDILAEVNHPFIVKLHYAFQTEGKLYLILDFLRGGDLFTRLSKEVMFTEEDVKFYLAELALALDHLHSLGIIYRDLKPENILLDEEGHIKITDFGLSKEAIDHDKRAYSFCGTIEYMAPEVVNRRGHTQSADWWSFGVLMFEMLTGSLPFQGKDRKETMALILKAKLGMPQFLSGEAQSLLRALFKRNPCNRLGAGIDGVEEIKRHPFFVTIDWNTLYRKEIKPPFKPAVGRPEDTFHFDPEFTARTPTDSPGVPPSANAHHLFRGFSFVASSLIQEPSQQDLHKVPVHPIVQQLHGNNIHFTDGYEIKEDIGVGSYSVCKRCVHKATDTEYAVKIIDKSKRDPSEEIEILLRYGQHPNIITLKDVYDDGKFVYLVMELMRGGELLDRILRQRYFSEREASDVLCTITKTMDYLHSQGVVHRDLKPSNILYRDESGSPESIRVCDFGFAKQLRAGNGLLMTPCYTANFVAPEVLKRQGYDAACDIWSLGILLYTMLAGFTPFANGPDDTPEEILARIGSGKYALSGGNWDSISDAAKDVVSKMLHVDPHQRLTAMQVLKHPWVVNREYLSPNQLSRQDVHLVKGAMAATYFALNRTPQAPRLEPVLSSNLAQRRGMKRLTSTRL
Sequence of FITC-labeled phosphomimetic TANC1 peptide (p-6 Ser to Glu) (human) (Q9C0D5 whole entry, looked up, tested part not stated): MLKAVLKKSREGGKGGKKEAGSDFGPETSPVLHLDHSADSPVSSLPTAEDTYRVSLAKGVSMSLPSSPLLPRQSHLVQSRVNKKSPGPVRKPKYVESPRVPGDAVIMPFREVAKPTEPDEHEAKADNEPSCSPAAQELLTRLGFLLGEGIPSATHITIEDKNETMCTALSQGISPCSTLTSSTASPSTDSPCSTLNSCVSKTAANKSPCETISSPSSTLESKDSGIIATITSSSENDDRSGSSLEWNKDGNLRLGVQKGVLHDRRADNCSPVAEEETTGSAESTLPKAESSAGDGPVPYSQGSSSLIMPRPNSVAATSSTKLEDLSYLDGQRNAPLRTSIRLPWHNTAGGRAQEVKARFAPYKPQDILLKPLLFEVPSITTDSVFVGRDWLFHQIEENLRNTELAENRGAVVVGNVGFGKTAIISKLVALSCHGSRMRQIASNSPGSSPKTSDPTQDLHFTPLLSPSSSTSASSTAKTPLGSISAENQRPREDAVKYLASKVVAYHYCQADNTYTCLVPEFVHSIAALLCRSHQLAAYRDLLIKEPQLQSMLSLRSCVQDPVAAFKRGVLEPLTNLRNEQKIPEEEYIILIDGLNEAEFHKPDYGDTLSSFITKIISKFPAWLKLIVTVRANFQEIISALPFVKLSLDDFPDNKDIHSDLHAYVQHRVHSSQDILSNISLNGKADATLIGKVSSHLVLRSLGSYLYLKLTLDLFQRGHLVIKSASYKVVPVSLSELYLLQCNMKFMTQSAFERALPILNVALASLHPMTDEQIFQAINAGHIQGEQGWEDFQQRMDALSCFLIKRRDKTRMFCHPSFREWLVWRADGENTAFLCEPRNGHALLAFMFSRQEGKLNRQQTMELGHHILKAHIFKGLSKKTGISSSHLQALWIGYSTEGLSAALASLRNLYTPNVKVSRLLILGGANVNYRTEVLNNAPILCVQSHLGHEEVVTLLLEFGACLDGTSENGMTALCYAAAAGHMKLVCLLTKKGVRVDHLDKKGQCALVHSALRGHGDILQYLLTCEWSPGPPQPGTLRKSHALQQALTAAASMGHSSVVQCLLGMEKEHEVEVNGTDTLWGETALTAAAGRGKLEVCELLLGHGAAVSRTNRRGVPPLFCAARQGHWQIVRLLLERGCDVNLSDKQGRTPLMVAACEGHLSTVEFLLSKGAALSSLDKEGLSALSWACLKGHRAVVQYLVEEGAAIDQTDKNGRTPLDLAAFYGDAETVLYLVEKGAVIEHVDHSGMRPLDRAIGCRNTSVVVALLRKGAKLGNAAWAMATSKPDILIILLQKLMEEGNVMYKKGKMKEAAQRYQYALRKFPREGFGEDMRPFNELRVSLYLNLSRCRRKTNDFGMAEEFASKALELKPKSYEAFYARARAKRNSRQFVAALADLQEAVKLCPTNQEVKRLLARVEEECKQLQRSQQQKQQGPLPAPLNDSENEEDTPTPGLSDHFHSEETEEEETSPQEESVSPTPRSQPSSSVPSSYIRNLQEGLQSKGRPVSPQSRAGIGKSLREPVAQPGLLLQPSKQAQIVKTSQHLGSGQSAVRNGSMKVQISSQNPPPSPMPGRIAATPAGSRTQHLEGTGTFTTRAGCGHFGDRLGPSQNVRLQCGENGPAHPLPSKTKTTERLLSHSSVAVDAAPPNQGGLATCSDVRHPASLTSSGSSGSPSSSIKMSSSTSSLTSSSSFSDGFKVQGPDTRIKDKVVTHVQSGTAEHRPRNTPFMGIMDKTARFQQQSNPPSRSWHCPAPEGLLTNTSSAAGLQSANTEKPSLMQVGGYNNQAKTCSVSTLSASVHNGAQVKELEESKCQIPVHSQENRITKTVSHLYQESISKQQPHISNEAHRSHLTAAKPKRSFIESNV

Consider DLG1 PDZ2 (domain or fragment), for which the fold lower affinity than for the unphosphorylated peptide was 2.9 fold in [1], 2.4 fold in assay [4] and 9 fold in assay [5]. Besides, the fold higher affinity than for the unphosphorylated peptide in assay [2] stood at 7 fold; in assay [3], 1.3 fold.

Regarding HTNETSL-OH (also: FITC label, position not given here) [FITC-labeled unphosphorylated MCC peptide (HTNETSL-coo-)], the binding result in [6] was “binds”.

B1: p-1 phosphorylated MCC peptide (RPHTNETpSL-coo-) (peptide)
peptide: RPHTNET[pS]L-OH
modifications: N-terminus assumed
SMILES: CC(C)C[C@H](NC(=O)[C@H](COP(=O)(O)O)NC(=O)[C@@H](NC(=O)[C@H](CCC(=O)O)NC(=O)[C@H](CC(N)=O)NC(=O)[C@@H](NC(=O)[C@H](Cc1c[nH]cn1)NC(=O)[C@@H]1CCCN1C(=O)[C@@H](N)CCCNC(=N)N)[C@@H](C)O)[C@@H](C)O)C(=O)O
In the case of B1, in assay [7], the “fold lower KD than for the unphosphorylated peptide” value was determined as 2 fold. Further, the binding result in [8] and in assay [9] was “binds” throughout.

With RLTETRL (also: FITC label, position not given here) [FITC-labeled phosphomimetic RPS6KA2 peptide (p-3 Ser to Glu)], in [6], the binding result is “binds”.

For the molecule RPHTNETSL-OH [unphosphorylated MCC peptide (RPHTNETSL-coo-)], the binding result in [7], in assay [8] and in [9] was “binds” throughout.

In the case of B2, in [6], the binding result is “binds”.

For the molecule KRSFIESNV-OH (also: FITC label, position not given here) [FITC-labeled unphosphorylated TANC1 peptide (KRSFIESNV-coo-)], the binding result in assay [6] is listed as “binds”.

On to VRKLP[pS]TTL (also: FITC label, position not given here) [FITC-labelled phosphorylated RPS6KA1 peptide (S732, p-3)], for which, in assay [6], the Kd is 390 nM.

B3: Shank1 PDZ (domain or fragment)
chain: TVLLQKKDSEGFGFVLRGAKAQTPIEEFTPTPAFPALQYLESVDEGGVAWRAGLRMGDFLIEVNGQNVVKVGHRQVVNMIRQGGNTLMVKVVMVT
For the molecule B3, the “fold lower affinity than for the unphosphorylated peptide” value in assay [10] came to 3 fold; in assay [11] it was 3.6 fold.

In the case of MKRLTSTRL-OH [unphosphorylated RPS6KA2 peptide (MKRLTSTRL-coo-)], the binding result in assay [12], in assay [7], in assay [8], in assay [13] and in assay [9] was “binds” each time.

B4: p-3 phosphorylated RPS6KA2 peptide (MKRLTpSTRL-coo-) (peptide)
peptide: MKRLT[pS]TRL-OH
modifications: N-terminus assumed
SMILES: CSCC[C@H](N)C(=O)N[C@@H](CCCCN)C(=O)N[C@@H](CCCNC(=N)N)C(=O)N[C@@H](CC(C)C)C(=O)N[C@H](C(=O)N[C@@H](COP(=O)(O)O)C(=O)N[C@H](C(=O)N[C@@H](CCCNC(=N)N)C(=O)N[C@@H](CC(C)C)C(=O)O)[C@@H](C)O)[C@@H](C)O
Regarding B4, the binding result in [12], in [8], in assay [13] and in [9] was “binds” in each case. For the same molecule, the “fold lower KD than for the unphosphorylated peptide” value in [7] turned out to be 5 fold.

As to VRKLPSTTL-OH (also: FITC label, position not given here) [FITC-labelled unphosphorylated RPS6KA1 peptide (VRKLPSTTL-coo-)], the Kd in assay [6] is 1000 nM.

For KR[pS]FIESNV (also: FITC label, position not given here) [FITC-labeled p-6 phosphorylated TANC1 peptide], the binding result in [6] is reported as “binds”.

For the molecule B5, the binding result in [6] is reported as “binds”.

Consider RLTSTRL-OH (also: FITC label, position not given here) [FITC-labeled unphosphorylated RPS6KA2 peptide (RLTSTRL-coo-)], for which, in [6], the binding result is “binds”.

The term Kd denotes a measure of binding affinity in units of concentration. A higher Kd goes with lower affinity.
